Measurements: the supplement of paper PMC9112550, “Optimization of the antimicrobial peptide Bac7 by deep mutational scanning” (BMC Biology, 2022)

Tested on: Escherichia coli TOP10
Assay: shrunken log2 fold change of peptide-encoding DNA abundance (4.5 h post-induction vs induction); higher = less antimicrobial activity (less host growth inhibition)
Settings: time post-induction: 4.5 h; library: site-saturation at positions 5, 18, 19, 20
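Note: peptides expressed intracellularly from a pBAD plasmid library in pooled LB shake-flask culture, induced with 0.3% L-arabinose, DNA abundance read by NGS, three biological replicates, DESeq2 with apeglm shrinkage.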

Sequence	shrunken log2 fold change
RRIRRRPPRLPRPRPRPDMLPRP	-0.0772
RRIRERPPRLPRPRPRPFEMPRP	-0.536
RRIRIRPPRLPRPRPRPDHQPRP	-0.0128
RRIRPRPPRLPRPRPRPFLGPRP	-0.0178
RRIRVRPPRLPRPRPRPIRIPRP	-0.0273
RRIRERPPRLPRPRPRPPVTPRP	-0.152
RRIRLRPPRLPRPRPRPYNEPRP	-0.78
RRIRSRPPRLPRPRPRPPLYPRP	-0.0605
RRIRNRPPRLPRPRPRPFPPPRP	-0.32
RRIRFRPPRLPRPRPRPDVMPRP	-0.0908
RRIRLRPPRLPRPRPRPTHDPRP	0.324
RRIRIRPPRLPRPRPRPWTQPRP	0.0826
RRIRWRPPRLPRPRPRPCNIPRP	-0.133
RRIRPRPPRLPRPRPRPEVPPRP	0.0363
RRIRTRPPRLPRPRPRPRQGPRP	0.337
RRIRQRPPRLPRPRPRPEHEPRP	0.0155
RRIRWRPPRLPRPRPRPDMSPRP	-0.121
RRIRARPPRLPRPRPRPSYNPRP	-0.428
RRIRWRPPRLPRPRPRPLHQPRP	0.0809
RRIRKRPPRLPRPRPRPTTNPRP	0.486
RRIRVRPPRLPRPRPRPKTMPRP	0.196
RRIRKRPPRLPRPRPRPVEMPRP	0.126
RRIRCRPPRLPRPRPRPPGYPRP	0.422
RRIRCRPPRLPRPRPRPKKWPRP	0.00275
RRIRQRPPRLPRPRPRPNNTPRP	-0.578

Sequence	shrunken log2 fold change
RRIRFRPPRLPRPRPRPANGPRP	0.0551
RRIRNRPPRLPRPRPRPEKTPRP	-0.0226
RRIRRRPPRLPRPRPRPLPPPRP	0.937
RRIRPRPPRLPRPRPRPPWVPRP	0.356
RRIRMRPPRLPRPRPRPDCSPRP	0.172
RRIRMRPPRLPRPRPRPKVYPRP	0.0391
RRIRQRPPRLPRPRPRPHMNPRP	-0.76
RRIRSRPPRLPRPRPRPTSCPRP	-0.0946
RRIRKRPPRLPRPRPRPTHCPRP	0.251
RRIRPRPPRLPRPRPRPDESPRP	-0.188
RRIRKRPPRLPRPRPRPRPTPRP	1.04
RRIRWRPPRLPRPRPRPGCPPRP	0.0461
RRIRLRPPRLPRPRPRPRFQPRP	0.0867
RRIRDRPPRLPRPRPRPAATPRP	1.9
RRIRVRPPRLPRPRPRPIIPPRP	-0.36
RRIRERPPRLPRPRPRPMPTPRP	-0.00177
RRIRDRPPRLPRPRPRPIPLPRP	-0.0193
RRIRLRPPRLPRPRPRPKQNPRP	0.2
RRIRIRPPRLPRPRPRPLLEPRP	-0.437
RRIRTRPPRLPRPRPRPLSAPRP	0.369
RRIRMRPPRLPRPRPRPAGRPRP	0.725
RRIRARPPRLPRPRPRPESEPRP	3.51
RRIRFRPPRLPRPRPRPCMFPRP	-0.556
RRIRMRPPRLPRPRPRPNHKPRP	-0.391
RRIRVRPPRLPRPRPRPDNIPRP	-0.714

Sequence	shrunken log2 fold change
RRIRNRPPRLPRPRPRPLEPPRP	0.0692
RRIRARPPRLPRPRPRPPVWPRP	0.685
RRIRLRPPRLPRPRPRPVTPPRP	-0.0834
RRIRNRPPRLPRPRPRPLVGPRP	0.0121
RRIRRRPPRLPRPRPRPHQFPRP	-0.183
RRIRPRPPRLPRPRPRPSVMPRP	-0.123
RRIRFRPPRLPRPRPRPPIEPRP	-0.201
RRIRARPPRLPRPRPRPKCSPRP	0.0215
RRIRYRPPRLPRPRPRPASWPRP	0.299
RRIRKRPPRLPRPRPRPINYPRP	-0.0959
RRIRFRPPRLPRPRPRPVMQPRP	-0.0242
RRIRDRPPRLPRPRPRPNQFPRP	-0.416
RRIRVRPPRLPRPRPRPKGAPRP	0.553
RRIRQRPPRLPRPRPRPRCWPRP	0.257
RRIRNRPPRLPRPRPRPAEWPRP	0.412
RRIRWRPPRLPRPRPRPTEPPRP	-0.0787
RRIRQRPPRLPRPRPRPTAVPRP	0.165
RRIRKRPPRLPRPRPRPHMTPRP	0.0202
RRIRERPPRLPRPRPRPADCPRP	0.0519
RRIRIRPPRLPRPRPRPALDPRP	1.45
RRIRVRPPRLPRPRPRPWYPPRP	-0.884
RRIRSRPPRLPRPRPRPTCRPRP	-0.0471
RRIRIRPPRLPRPRPRPFRLPRP	-0.223
RRIRCRPPRLPRPRPRPMECPRP	-0.00088
RRIRCRPPRLPRPRPRPSKNPRP	-0.382

Sequence	shrunken log2 fold change
RRIRTRPPRLPRPRPRPSCTPRP	-0.643
RRIRKRPPRLPRPRPRPKIFPRP	0.0692
RRIRPRPPRLPRPRPRPQFVPRP	-0.528
RRIRVRPPRLPRPRPRPIEIPRP	-0.00163
RRIRTRPPRLPRPRPRPFIWPRP	-0.485
RRIRTRPPRLPRPRPRPMNWPRP	-0.234
RRIRTRPPRLPRPRPRPTVYPRP	-0.0364
RRIRSRPPRLPRPRPRPQVGPRP	-0.175
RRIRMRPPRLPRPRPRPMDKPRP	0.3
RRIRQRPPRLPRPRPRPEALPRP	-0.0434
RRIRGRPPRLPRPRPRPRKKPRP	0.774
RRIRKRPPRLPRPRPRPMNNPRP	-0.0152
RRIRRRPPRLPRPRPRPHEWPRP	-0.00636
RRIRCRPPRLPRPRPRPMINPRP	-0.53
RRIRKRPPRLPRPRPRPRYEPRP	0.362
RRIRFRPPRLPRPRPRPPYHPRP	-0.454
RRIRARPPRLPRPRPRPDFWPRP	0.289
RRIRQRPPRLPRPRPRPQSWPRP	0.0219
RRIRGRPPRLPRPRPRPCMAPRP	0.703
RRIRFRPPRLPRPRPRPRHCPRP	-0.239
RRIRYRPPRLPRPRPRPCDVPRP	-0.739
RRIRMRPPRLPRPRPRPYTCPRP	8.02e-05
RRIRYRPPRLPRPRPRPKQPPRP	0.102
RRIRVRPPRLPRPRPRPFREPRP	0.0848
RRIRRRPPRLPRPRPRPMGHPRP	0.129

Sequence	shrunken log2 fold change
RRIRLRPPRLPRPRPRPMPHPRP	0.0155
RRIRLRPPRLPRPRPRPDYYPRP	-0.216
RRIRARPPRLPRPRPRPMRKPRP	-0.046
RRIRHRPPRLPRPRPRPEYDPRP	-0.0789
RRIRRRPPRLPRPRPRPHTPPRP	-0.039
RRIRCRPPRLPRPRPRPVAFPRP	-0.169
RRIRVRPPRLPRPRPRPFGIPRP	-0.371
RRIRRRPPRLPRPRPRPERRPRP	0.418
RRIRCRPPRLPRPRPRPPGAPRP	0.678
RRIRHRPPRLPRPRPRPNRIPRP	-0.46
RRIRARPPRLPRPRPRPDWFPRP	0.408
RRIRHRPPRLPRPRPRPRTSPRP	0.245
RRIRHRPPRLPRPRPRPQGAPRP	-0.171
RRIRGRPPRLPRPRPRPSWNPRP	0.285
RRIRTRPPRLPRPRPRPPECPRP	0.0838
RRIRHRPPRLPRPRPRPAEFPRP	0.108
RRIRARPPRLPRPRPRPIPTPRP	-0.0942
RRIRLRPPRLPRPRPRPFRVPRP	0.128
RRIRNRPPRLPRPRPRPEMQPRP	-0.00804
RRIRERPPRLPRPRPRPIILPRP	-0.136
RRIRPRPPRLPRPRPRPSFKPRP	-0.123
RRIRFRPPRLPRPRPRPCVRPRP	-0.0911
RRIRHRPPRLPRPRPRPKMTPRP	-0.519
RRIRTRPPRLPRPRPRPKPEPRP	0.0154
RRIRKRPPRLPRPRPRPQCEPRP	-0.0553
